The values that follow come from the DeepSol protein solubility set.

The data set is described as follows: soluble on expression in E. coli; label from the status in PepcDB or PDB records.
Regarding “MQPYTAPSEIALRQLDYFADKHVLVAGEVEDRFPIELRQYCASVSVFTTHYGYYSQLKAYPEITRYFGEQLTADLNADLILLYWPKAKQEAEYLLAMLLAKLGTGTEIVVVGENRSGVKSIEKMFAAYGPIHKYDSARRCSFYWGHCVHTPAAFDIEQWFKSYAVDYQGHELTIRSLPGVFSHGEFDLGSRLLLDTLPPLSGKVIDIGSGAGVLGCVMAKLNPHIELEMTDISALAIRSSQETLVANQLHGHVYPSDMFSDTGHHYNYIVTNPPFHSGLETSYSATERLLAESVDHLASGGSIWVVANSFLKYPPILEQAFGHCDIAAKTNKFAIYHAKK”, the “soluble on expression in E. coli” value is on record as “not soluble”. Consider “HKFIRTAIDMDKNRAFSSRLRQSIKDYFDMPWYLTFADAERLSDLRDEALVLRDDEVTGQVPMEVEYEEFQQVNDELSERIGDMLKAHKEQGTPIDLSVVLRDYLAQHPYTHHFDLARIIVDQAVRLGYSESDYQAIQPDWKAINEFGAKVQANVIDRY”, for which the “soluble on expression in E. coli” value was “soluble”. Consider “MSLKPRACVVVYPGSNCDRDAYHALEINGFEPSYVGLDDKLDDYELIILPGGFSYGDYLRPGAVAAREKIAFEIAKAAERGKLIMGICNGFQILIEMGLLKGALLQNSSGKFICKWVDLIVENNDTPFTNAFEKGEKIRIPIAHGFGRYVKIDDVNVVLRYVKDVNGSDERIAGVLNESGNVFGLMPHPERAVEELIGGEDGKKVFQSILNYLKREGGSHHHHHH”, for which the “soluble on expression in E. coli” value is “soluble”. In the case of “RENFPGVSWDSLPDELLLGIFSCLCLPELLKVSGVCKRWYRLASDESLWQTLDEFRVQHMDLSNSVIEVSTLHGILSQCSKLQNLSLEGLRLSDPIVNTLAKNSNLVRLNLSGCSGFSEFALQTLLSSCSRLDELNLSWCFDFTEKHVQVAVAHVSETITQLNLSGYRKNLQKSDLSTLVRRCPNLVHLDLSDSVMLKNDCFQEFFQLNYLQHLSLSRCYDIIPETLLELGEIPTLKTLQVFGIVPDGTLQLLKEALPHLQINCSHFTTIAR”, the “soluble on expression in E. coli” value is “soluble”. For “MNKFLGMYNTNTSNGGFVMSEKIYLKIDQQRYVKKPRVTIGDVMTVYCSDKDMIEKIGHITLAEFTLGKYDRKVFDALDVVGIIQKEYPDADIECLGECDFVVEYKKPEKEGTVH”, the “soluble on expression in E. coli” value was “not soluble”. For the sequence “MGSDKIHHHHHHMLERYQGEDGRRLRVEAALDSKLAKGNQALAEAIADVATLRQFKAGQALIEQGGDDNQVYILISGSCDVIVNAKVVNRRGPGDHVGEMAAIQPAQRRSATIMATEQVLAFELPEPVFANLAATYPDIYRLIAKDLARRLLQRNAVTGTPRKRIRVFVISSVEALPIARAIQTAFEYDPFTVIVWTDGVFKVANYTLQSLEDEIDNSDFAIAIAHPDDKVESRQAQWPQPRDNVIFELGLFMGRLGRARAILMEPRDEKVKLPSDLAGVTTIGYRFDPDGDTQAALAPACNRLRNHIVELGLAVG”, the “soluble on expression in E. coli” value is given as “not soluble”.

Consider “MSKIARKDVERLIELVGGPDNIASVSHCLTRLRFVLNDTDKADTKQLEALRMVKGCFTNAGQFQVVIGTEVDEVYKVLIELSGKSEASKDESKNAARQNMNIVERGISHLAE”, for which the “soluble on expression in E. coli” value was “not soluble”.

For the sequence “MKIYCCLNTVGFFMDGCGVIPPDSKEITAEHWQSLLKSQAEGGVIDFSVFPPSIKEVIRTHDDEVADANFQKQMLISDATDFINSRQWQGKAALGRLKEDELKQYNLWLDYLEALELVDTSSAPDIEWPTPPAVQARLEHHHHHH”, the “soluble on expression in E. coli” value is on record as “soluble”. For “MENIFLKRLEFKAFEEDSVFSKIEGLNKFNSLNFKKPITFFSGENGTGKSTLLEAIAVNWGFNPEGGSINFNFSTKDTHLDLHNYLTVGKSVKRATDGFFLRAESFYNVATYAENIDLDFSEYGDKSLHHQSHGESFLNLVNHRFRGNGLYLLDEPEAALSPQRQLALMISIKKLIDEGSQFIIVSHSPILLAMPDSQIISFDKDSPLEITYEESMPYEITSLFLNNKNRILSHLFAE”, the “soluble on expression in E. coli” value is on record as “not soluble”. Under “MRIQFEIKESLINILDQLMHSDFWATEIKEDESGKKIIKIKDLAYNLEAVAEVMGNEIFIRTALSKYTYRIYEVKGECWCEYVGAYRGFLEQKLLPIITPKENLLECEVLDSSILGGKQKTLREYAEDNLKLKKFREQNFGNNGFSKADHPRRVYDEFIKEDFIPEDKKGHSLNITKSAN” stands “not soluble”. Under “MKPVPTYVQDKDESTLMFSVCSLVRDQAKYDRLLESFERFGFTPDKAEFLAADNREGNQFHGFSWHKQMLPRCKGRYVIFCHEDVELVDRGYDDLVAAIEALEEADPKWLVAGVAGSPWRPLNHSVTAQALHISDVFGNDRRRGNVPCRVESLDECFLLMRRLKPVLNSYDMQGFHYYGADLCLQAEFLGGRAYAIDFHLHHYGRAIADENFHRLRQEMAQKYRRWFPGRILHCVTGRVALGGGWYEAR” stands “soluble”; under “MARIRVVQGDITEFQGDAIVNAANNYLKLGAGVAGAILRKGGPSIQEECDRIGKIRVGEAAVTGAGNLPVRYVIHAAVLGDEPASLETVRKATKSALEKAVELGLKTVAFPLLGTGVGGLPVEAVARVMLEEIKKAPDTLEVTLYGYREEDAEAIRRAL”, “soluble”; under “MSLRHMQIETVNLPLARPMAAENGTRHAVTVIRVALEEKGFIGQGECTPAAHYGESADSVCRQLSAIREAIENGLTIEQLQQNLSPGAARNALDCALWRLNTALEKQTLWQRVGIHPPTSVVCAQTLALDSVEKMATAASNAVSHGALLLKIKLDRELILEKVAAIRAAAPNARLIIDARASWSGLDLHSLSTALLPYQVAMIEQPLPVGKDEDLQRFAHPIPICADESCRHSGDIVGLRRRYDMINIKLDKCGGLTEALAMVREAHFHGLRIMVGCTLGSSMAMEAALPVAADAEHVDLDGPIWLAADSSPYLTYNLGRIWLEGHHHHHH”, “soluble”. With “MTLSIIVAHDKQRVIGYQNQLPWHLPNDLKHIKQLTTGNTLVMARKTFESIGKPLPNRRNVVLTNQASFHHEGVDVINSLDEIKELSGHVFIFGGQTLYEAMIDQVDDMYITVIDGKFQGDTFFPPYTFEDWEVESSVEGQLDEKNTIPHTFLHLVRRKGK”, the “soluble on expression in E. coli” value was “soluble”. With “MSLITLPKISLIGSNIAKEGLEFVFAGPLAACSDCRVKNVCFNLEQGHRYRVTKVREQVNPCIIFNGDKVNTVEVEELEDYVNVQESKRIQEGAIITLKSMNCDYITCPNIEKCNLYYFKPDSKVMVKSIGKEIKCPKGYKMKQVAITYKEGHHHHHH”, the “soluble on expression in E. coli” value was “not soluble”. On to “MVFKMMYSEAILDYANSKKFRGKLDDATVIEEGKNISCGDEITLYLKVEDGVVKDAKFEGMGCVISQASASLMLERIIGERVEEIFSLIEEAEKMSRGENFDEGKLKNVTLMSDIKNYPARVKCFILAWKTLKEALKKISRP”, for which the “soluble on expression in E. coli” value is recorded as “soluble”. Take “MIDQHQYIERESGSVCNERLFGDRLIRLLYHGARENAPFLFKMATSSWSSGLLGFINFDLPFGSNRRFLEECGVDLDECLDPPESLDTPRKVFERRIRYEQCRPMPEVQWAVVSPADARVLVGSFRDTSALFLKEKFFDFEELLGRHKEEWLRAFTGGEFAVFRLTPDKYHYNHTPVAGTVRDIYEIDGGYHSCNPGAVVIEATPFSKNRRVVTVIDTDVPGGTGVGLVAMIEVVALMIGQIVQCYSYEGYTAPRPVEPGMFLRRGVPKSLYRPGSSTDVLIFQRDRMHFADDIVRNMHDTRAASRFSHGFGRPLVETDVKVRSLIAVAVTNLEHHHHHH”: the “soluble on expression in E. coli” value is recorded as “not soluble”. Turning to “MSTPRQILAAIFDMDGLLIDSEPLWDRAELDVMASLGVDISRRNELPDTLGLRIDMVVDLWYARQPWNGPSRQEVVERVIARAISLVEETRPLLPGVREAVALCKEQGLLVGLASASPLHMLEKVLTMFDLRDSFDALASAEKLPYSKPHPQVYLDCAAKLGVDPLTCVALEDSVNGMIASKAARMRSIVVPAPEAQNDPRFVLSNVKLSSLTELTAKDLLG”, the “soluble on expression in E. coli” value is on record as “soluble”.

As for “MGSDKIHHHHHHMIQPRIRQNPFETYEEVAEGFEDLLAPLELFFDREYQGHLDLGTHGTVYSKGTRDAEAFLRPLWGLGPYVTQNESEYLNDFLTGIIEGTDPESSSYWGKTKDYDQLIVEMAALSTFLLLNKEKTWDQLTKEQQNNLHSWLIQANENIIPPNNWHFFRVLLNLAMKHCEMPYSKEQIAVDLAVIDRFYVGNGWYYDGVETQVDYYVSFAIHYYSLLYCRFAPEDTARVAIMKERATLFAQEFKYWFTQPGEAIPFGRSLTYRFAQVSFFSALVFADVEALPWGEIKGLISRHLHQWMNKDIFTTDGLLSVGYDYQNMVFAEGYNGPGSPYWAFKTFILLAVPKDHPYWQAETQPISFPEKHLPSPESRNYYQVNDAGTHGLMFPAGQFINYQAHAHDKYSKFVYSSHFGFSTIKSDYWYYEGAYDNCLALAEDDHYFRTKGLDDQYEILDDRIIHQWHPWSDVAIKTTIVPLEGQHLRIHEIETQRALVAYEGGFSIPLFDEKVTCVSDQMAEVKNAKGVSKVENINGFSEAAIIRTEPNTNLLYPLTELPYLKANLSKGKHLLISLVTGVLPNEQIEPVKVRLKENQLLVEEKVVILGN”, the “soluble on expression in E. coli” value is listed as “not soluble”.

For “MSEFLNENPDILEENQLPTRKEDSTKDLLLGGFSNEATLERRSLLLKIDHSLKSQVLQDIEVLDKLLSIRIPPELTSDEDSLPAESEDESVAGGGKEEEEPDLIDAQEIYDLIAHISDPEHPLSLGQLSVVNLEDIDVHDSGNQNEMAEVVIKITPTITHCSLATLIGLGIRVRLERSLPPRFRITILLKKGTHDSENQVNKQLNDKERVAAACENEQLLGVVSKMLVTCK”, the “soluble on expression in E. coli” value was “soluble”.

Consider “MAHHHHHHMTVYHEQFALVPPQYPRRAVQEAENHRALAALYELVENAIATAENYVAYTEGRLVPLSSRGSELLAASKELRERYRHEAPCGWTEQKVMQHCEQEVTVEEMAELLLRPPLDVSGIRSILRTLQETRTQLPRGRFLLMRDNLSALKPHQPPDLVRDLSDVCGALYEIQYVDLMAELRAELSELDGERDKVQEKLKDAIHLYERALAKGDVVEVERAHRQLIAARYEFVNACAKLMHQILGEDMASQESGFAAEMEALRRDATDSISRFVEALHERRQAFRNDLHNCDKKRLEEDGNHQKCLEAYNAEERETAAQIGQIVEQKKKLVEELRQKARELRDITLKQKEMVEAQVRAKRAEEERVTAYNEFVNMEEQQKHRLLRCLAYFDGMEELTADLRSYVDEMVTRIPQQNLRQVIDQLNDIEAEAFMNAYSGFVSCCGELTVKKMHRLDTLERQARLLEHNRDSAMESLDPNMSNYRLELDDIIEQMKGVSGVINALNATQDAGEQLFQSVEKGVLAKYERSGTPFVHPLQEYGIKSVEERNRFVDRSMHYVENEERKVFEKRNVLNRMRQAVEEDEAATESAIRNLPAAPEY”, for which the “soluble on expression in E. coli” value was “soluble”.

In the case of “MSLKPSDAEEARTEAFLVKLREFLDTVDGSVIERAAQIPDEYVKGLAELGCFGLKIPSEYGGLNMSQVAYNRVLMMVTTVHSSLGALLSAHQSIGVPEPLKLAGTAEQKRRFLPRCAAGAISAFLLTEPDVGSDPARMASTATPIDDGQAYELEGVKLWTTNGVVADLLVVMARVPRSEGHRGGISAFVVEADSPGITVERRNKFMGLRGIENGVTRLHRVRVPKDNLIGREGDGLKIALTTLNAGRLSLPAIATGVAKQALKIAREWSVERVQWGKPVGQHEAVASKISFIAATNYALDAVVELSSQMADEGRNDIRIEAALAKLWSSEMACLVGDELLQIRGGRGYETAESLAARGERAVPVEQMVRDLRINRIFEGSSEIMRLLIAREAVDAHLTAAGDLANPKADLRQKAAAAAGASGFYAKWLPKLVFGEGQLPTTYREFGALATHLRFVERSSRKLARNTFYGMARWQASLEKKQGFLGRIVDIGAELFAISAACVRAEAQRTADPVEGEQAYELAEAFCQQATLRVEALFDALWSNTDSIDVRLANDVLEGRYTWLEQGEGHHHHHH”, the “soluble on expression in E. coli” value was “not soluble”.
